Measured values taken from article PMC4655416.

Tests used:
[1] = biological target: CeHsp90-MC (middle and C-terminal domains of C. elegans Hsp90) (C. elegans)
[2] = biological target: CeHsp90-MC (middle and C-terminal domains of C. elegans Hsp90) (C. elegans); assay: AUC; sedimentation velocity with UV/VIS absorbance optics (OD280); PPH-5 titrated to a constant concentration of CeHsp90 (4 μM) or CeHsp90-MC (3.5 μM); global fit to sequential binding of a first and second PPH-5

B1: protein phosphatase 5 from C. elegans (PPH-5) (enzyme)
chain: MAATITDDIVATVLESIEEKSYEDEKEKAGMIKDEANQFFKDQVYDVAADLYSVAIEIHPTAVLYGNRAQAYLKKELYGSALEDADNAIAIDPSYVKGFYRRATANMALGRFKKALTDYQAVVKVCPNDKDARAKFDECSKIVRRQKFEAAISTDHDKKTVAETLDINAMAIEDSYDGPRLEDKITKEFVLQLIKTFKNQQKLHKKYAFKMLLEFYNYVKSLPTMVEITVPTGKKFTICGDVHGQFYDLCNIFEINGYPSETNPYLFNGDFVDRGSFSVETIFTMIGFKLLYPNHFFMSRGNHESDVMNKMYGFEGEVKAKYTQQMCDMFTETFCWLPLCHLINEKIFVCHGGLFKEDGVTLEDIRKTDRNRQPPDEGIMCDLLWSDPQPINGRSPSKRGVGCQFGPDVTSKWCETNGIEYVVRSHEVKPEGYEMHHNGQCFTVFSAPNYCDQMNNKGAFITITGDNLTPRFTPFDAVPHPKLPPMAYANSLFGFN
[1]
  kcat of PPH-5 towards the model peptide KRpTIRR (50 μM) with 3 μM Hsp90-MC: 0.161 s⁻¹
[2]
  stoichiometry N (PPH-5 per CeHsp90-MC dimer): 2
